Read-outs that look alike come from different tables or passages of the source.
Assays:
PSMA+ LNCaP cells = assay: Internalization experiments (specific cell surface bound and internalized fractions); assay type: cell-based; details: 68Ga-labeled compound 30 nM, 45 min
Protocol: (§1) PSMA^+ LNCaP cells (ATCC CRL-1740) were cultured in RPMI medium supplemented with 10% fetal calf serum and 2 mmol/L L-glutamine (all from PAA). Cells were grown at 37° C. in humidified air with 5% CO2 and were harvested using trypsin-ethylenediaminetetraacetic acid (trypsin-EDTA; 0.25% trypsin, 0.02% EDTA, Invitrogen).
For internalization experiments, 10^5 cells per well were seeded in poly-L-lysine coated 24-well cell culture plates 24 h before incubation. After washing, the cells were incubated with 30 nM of the radiolabeled compound for 45 min at 37° C. and at 4° C., respectively. Cellular uptake was terminated by washing 3 times with 1 mL of ice-cold PBS. To remove surface-bound radioactivity, cells were incubated twice with 0.5 mL glycine-HCl in PBS (50 mM, pH=2.8) for 5 min. The cells were washed with 1 mL of ice-cold PBS and lysed using 0.3 N NaOH (0.5 mL). The surface-bound and the internalized fractions were measured in a gamma counter. The cell uptake was calculated as percent of the initially added radioactivity bound to 10^5 cells [% ID/10^5 cells].

[1] = Biodistribution (organ distribution) of 68Ga-labeled compounds; assay type: in vivo, mice; details: male, BALB/c nu/nu, mouse, iv, 60 pmol, total radioactivity
Protocol: (§2) The precursor peptides [1 nmol in HEPES buffer (580 mg/ml), 90 μL] were added to 40 μL [^68Ga]Ga^3+ eluate (˜40 MBq). The pH was adjusted to 3.8 using 30% NaOH and 10% NaOH, respectively. The reaction mixture was incubated at 98° C. for 10 minutes. The radiochemical yield (RCY) was determined by HPLC. For the experimental tumor models 5×10^6 cells of LNCaP (in 50% Matrigel; Becton Dickinson, Heidelberg, Germany) were subcutaneously inoculated into the right trunk of 7- to 8-week-old male BALB/c nu/nu mice (Charles River). The tumors were allowed to grow until approximately 1 cm^3 in size. The ^68Ga-labeled compounds were injected into a tail vein (1-2 MBq; 60 pmol). […] Organs of interest were dissected, blotted dry, and weighed. The radioactivity was measured using a gamma counter and calculated as % ID/g. All animal experiments complied with the current laws of the Federal Republic of Germany.

[2] = system: LNCaP-tumor bearing balb/c nu/nu mice; assay: as above; assay type: in vivo
Protocol: as §2

PSMA = biological target: T1, PSMA (Homo sapiens, UniProt Q04609); assay: Competitive cell binding assay on LNCaP cells (PSMA binding affinity); details: competition against 0.2 nM 68Ga-labeled PSMA-10
T1 construct: endogenous in cells; host or cells: LNCaP cells (ATCC CRL-1740)
Protocol: as §1
The competitive cell binding assay and internalization experiments were performed as described previously (4). Briefly, the cells (10^5 per well) were incubated with a 0.2 nM solution of ^68Ga-labeled radioligand [Glu-urea-Lys(Ahx)]2-HBED-CC (PSMA-10, precursor ordered from ABX, Radeberg, Germany) in the presence of 12 different concentrations of analyte (0-5000 nM, 100 μL/well). After incubation, the mixture was removed and the wells were washed 3 times with PBS using a multiscreen vacuum manifold (Millipore, Billerica, Mass.). Cell-bound radioactivity was measured using a gamma counter (Packard Cobra II, GMI, Minnesota, USA). The 50% inhibitory concentration (IC50) values were calculated by fitting the data using a nonlinear regression algorithm (GraphPad Software).

[3] = listed as PSMA-HBED-CC-PEG2-IRDye8000CW
[4] = in vivo, Organ distribution Blood
[5] = in vivo, Organ distribution Brain
[6] = in vivo, Organ distribution Heart
[7] = in vivo, Organ distribution Intestine
[8] = in vivo, Organ distribution Kidney
[9] = in vivo, Organ distribution Liver
[10] = in vivo, Organ distribution Lung
[11] = in vivo, Organ distribution Muscle
[12] = in vivo, Organ distribution Spleen

T1 sequence (Q04609 whole entry): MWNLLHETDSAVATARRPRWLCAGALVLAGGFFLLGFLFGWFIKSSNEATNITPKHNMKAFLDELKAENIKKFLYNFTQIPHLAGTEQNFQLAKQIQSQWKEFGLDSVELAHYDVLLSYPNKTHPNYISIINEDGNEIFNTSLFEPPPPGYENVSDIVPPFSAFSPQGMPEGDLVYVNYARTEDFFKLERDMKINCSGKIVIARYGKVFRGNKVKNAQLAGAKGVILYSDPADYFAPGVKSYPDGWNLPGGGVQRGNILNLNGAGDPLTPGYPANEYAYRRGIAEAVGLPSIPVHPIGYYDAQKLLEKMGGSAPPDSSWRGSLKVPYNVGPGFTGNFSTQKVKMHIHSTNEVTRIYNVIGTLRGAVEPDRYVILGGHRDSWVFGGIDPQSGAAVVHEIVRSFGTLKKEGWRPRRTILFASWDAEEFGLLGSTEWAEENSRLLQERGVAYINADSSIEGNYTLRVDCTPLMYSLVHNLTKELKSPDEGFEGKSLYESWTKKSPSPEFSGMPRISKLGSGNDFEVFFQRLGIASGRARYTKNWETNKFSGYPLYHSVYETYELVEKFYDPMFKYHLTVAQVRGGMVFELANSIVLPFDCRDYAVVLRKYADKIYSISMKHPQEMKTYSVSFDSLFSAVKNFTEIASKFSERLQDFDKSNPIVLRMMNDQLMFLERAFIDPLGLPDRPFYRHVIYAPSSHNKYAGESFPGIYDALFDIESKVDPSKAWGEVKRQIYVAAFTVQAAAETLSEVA

CC1(C)C(/C=C/C2=C(Oc3ccc(S(=O)(=O)O)cc3)C(=C\C=C3/N(CCCCS(=O)(=O)O)c4ccc(S(=O)(=O)O)cc4C3(C)C)/CCC2)=[N+](CCCCCC(=O)NCCOCCOCCNC(=O)CCc2ccc(O)c(CN(CCN(CC(=O)O)Cc3cc(CCC(=O)NCCCCC(NC(=O)NC(CCC(=O)O)C(=O)O)C(=O)O)ccc3O)CC(=O)O)c2)c2ccc(S(=O)(=O)O)cc21 (stereo not shown) [PSMA-HBED-CC-PEG2-IRDye800CW, Glu-urea-Lys-HBED-CC-PEG2-IRDye800CW, reference compound]
Specific cell surface bound (PSMA+ LNCaP cells): improved
Specific internalized (PSMA+ LNCaP cells): improved
Specific cell surface bound (PSMA+ LNCaP cells; [3]): 13.62 ± 4.79 % ID/10^5 cells
Specific internalized (PSMA+ LNCaP cells; [3]): 18.70 ± 7.03 % ID/10^5 cells
tissue uptake at 1 h [1, 4]: 3.04 %ID/g
tissue uptake at 2 h [1, 4]: 0.76 %ID/g
tissue uptake at 1 h [1, 5]: 0.43 %ID/g
tissue uptake at 2 h [1, 5]: 0.22 %ID/g
tissue uptake at 1 h [1, 6]: 2.78 %ID/g
tissue uptake at 2 h [1, 6]: 1 %ID/g
tissue uptake at 1 h [1, 7]: 2.41 %ID/g
tissue uptake at 2 h [1, 7]: 1.37 %ID/g
tissue uptake at 1 h [1, 8]: 205 %ID/g
tissue uptake at 2 h [1, 8]: 120 %ID/g
tissue uptake at 1 h [1, 9]: 2.76 %ID/g
tissue uptake at 2 h [1, 9]: 1.21 %ID/g
tissue uptake at 1 h [1, 10]: 5.6 %ID/g
tissue uptake at 2 h [1, 10]: 2.53 %ID/g
tissue uptake at 1 h [1, 11]: 2.86 %ID/g
tissue uptake at 2 h [1, 11]: 1.96 %ID/g
tissue uptake at 1 h [1, 12]: 38.1 %ID/g
tissue uptake at 2 h [1, 12]: 13.7 %ID/g
tissue uptake at 2 h ([1]; in vivo, Organ distribution Tumor): 7.94 %ID/g
tissue uptake at 1 h ([1]; in vivo, Organ distribution Tumor (tumor accumulation)): 13.7 %ID/g
tissue to tissue ratio at 1 h ([1]; in vivo, Tumor-to-Organ ratio T/Blood): 4.49
tissue to tissue ratio at 1 h ([1]; in vivo, Tumor-to-Organ ratio T/Brain): 31.4
tissue to tissue ratio at 1 h ([1]; in vivo, Tumor-to-Organ ratio T/Heart): 4.92
tissue to tissue ratio at 1 h ([1]; in vivo, Tumor-to-Organ ratio T/Intestine): 5.66
tissue to tissue ratio at 1 h ([1]; in vivo, Tumor-to-Organ ratio T/Liver): 4.94
tissue to tissue ratio at 1 h ([1]; in vivo, Tumor-to-Organ ratio T/Lung): 2.44
tissue to tissue ratio at 1 h ([1]; in vivo, Tumor-to-Organ ratio T/Muscle): 4.78
tissue to tissue ratio at 1 h ([1]; in vivo, Tumor-to-Organ ratio T/Spleen): 0.36
tissue to tissue ratio at 1 h ([1]; tumor and kidney, 68Ga labeled, 1 h p.i., read-out: Tumor-to-Organ ratio T/Kidney): 0.07
Tumor-to-Organ ratio T/Kidney ([2]; 68Ga labeled, 1 h p.i.): 0.07
Tumor-to-Organ ratio T/Blood ([2]; mouse, in vivo): 4.49
Tumor-to-Organ ratio T/Brain ([2]; mouse, in vivo): 31.39
Tumor-to-Organ ratio T/Heart ([2]; mouse, in vivo): 4.92
Tumor-to-Organ ratio T/Intestine ([2]; mouse, in vivo): 5.66
Tumor-to-Organ ratio T/Liver ([2]; mouse, in vivo): 4.94
Tumor-to-Organ ratio T/Lung ([2]; mouse, in vivo): 2.44
Tumor-to-Organ ratio T/Muscle ([2]; mouse, in vivo): 4.78
Tumor-to-Organ ratio T/Spleen ([2]; mouse, in vivo): 0.36
Ki (PSMA): 17.5 ± 4.98 nM

— patent publication US12156920B2, “Double-labeled probe for molecular imaging and use thereof” (Deutsches Krebsforschungszentrum, priority 2017, dated 2024)
